One assay deals with Human PBMC. The experiment in a line: Apoptosis of PBMCs: reduction of PBMC cell subsets. It is filed as cell-based. Conditions: 24 hrs; for Bottom level of % subset cell reduction / Top level of % subset cell reduction: donor UCB Cone-802. How it is done: Human PBMC derived from blood leukocyte platelet-apheresis cones (NHSBT Oxford) were banked as frozen aliquots. Prior to an assay being performed, 2 vials of frozen cells, each containing 5×10^7 cells in 1 ml, were thawed in a 37° C. water bath and then added to 50 ml complete media (RPMI 1640+2 mM GlutaMAX+1% Pen/Strep, all previous supplied by Invitrogen, +10% Fetal Bovine Serum (FBS), Sigma Aldrich). Cells were spun (500 g, 5 min, at RT) and re-suspended in 30 ml complete media to wash and spun again. Cells were resuspended in 10 ml complete media and then counted using a ChemoMetec NucleoCounter NC-3000. 10^5 cells per well in 100 μl were then added to each well of a Corning Costar 96-well, cell culture treated, U-shaped-bottom microplate (cat no. 07-200-95). The plate was rested in a 37° C., 5% CO2 incubator for 2 hrs. PBMCs from two donors, UCB-Cones 801 and 802 were used in this assay.
Similarly, a 1500 nM stock of 4133-6294 BYbe in complete media was prepared. The microplate was incubated for 1 hr at 37° C., 5% CO2. Following the incubation, Fab-KD-Fab and BYbe reagents were then serially diluted in complete media 1 in 5, nine times to produce to form a 10-point dose curve.
Following the incubation, the plate was spun at 500 g, 5 min, RT, the buffer was aspirated with a BioTek ELx405 microplate washer, and the cells were re-suspended in FACS buffer (PBS+1% bovine serum albumin (BSA)+0.1% NaN3+2 mM EDTA, Sigma Aldrich) to wash and then re-spun and buffer was aspirated to leave the cells in 20 μl residual media. 20 μl of cell-specific marker antibody cocktail solution was added to the wells and incubated for 1 hr at 4° C. The antibody cocktail is detailed in Table 4 below.
Cells were analysed live using the Intellicyt iQue Screener PLUS. Live cell counts were extracted as metrics and graphical representations generated using Graphpad Prism version 8.1 (Graphpad). Asymmetric (five parameter) curve fitting was applied to derive maximal % cell reduction and EC50 values.

The target of a further assay is T1, CD45 ECD (Homo sapiens, UniProt P08575).
T1 construct: extracellular domain of CD45 (UniProtKB—P08575, residue positions 225-573); TEV cleavage site (C); 10-His tag (C); made in house; host or cells: HEK293
T1 sequence (P08575 225-573): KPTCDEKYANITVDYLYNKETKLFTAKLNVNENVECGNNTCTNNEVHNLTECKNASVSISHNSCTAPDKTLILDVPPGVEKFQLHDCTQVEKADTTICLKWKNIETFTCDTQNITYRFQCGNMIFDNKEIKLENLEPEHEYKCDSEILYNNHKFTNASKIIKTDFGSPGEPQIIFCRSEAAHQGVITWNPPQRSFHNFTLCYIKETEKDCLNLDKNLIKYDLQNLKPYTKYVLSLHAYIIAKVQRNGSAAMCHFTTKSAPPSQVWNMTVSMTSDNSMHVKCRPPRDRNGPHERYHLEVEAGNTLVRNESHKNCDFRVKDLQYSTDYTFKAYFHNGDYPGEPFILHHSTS
As to the kind of experiment: Sedimentation velocity, analytical ultracentrifuge. Format: binding. Particulars: for Experimental S value: molar 1:1 mixture. The method, then:
CD45 ECD and 4133-6294 BYbe were mixed in a molar ratio of 1:1 and incubated for 1 hour at room temperature. The molar ratio was determined using the predicted mass of 4133-6294 BYbe at 73.5 kDa and the mass of CD45 ECD as determined by mass photometry at 62 kDa.
The CD45 ECD-4133-6294 BYbe mixture, CD45 ECD only or 4133-6294 BYbe only were loaded into cells with 2-channel charcoal-epon centrepieces with 12 mm optical path length and glass quartz glass windows. The corresponding buffer was loaded into the reference channel of each cell (the instrument functions like a dual beam spectrometer). Those loaded cells were then placed into an AN-60Ti analytical rotor, loaded into a Beckman-coulter Optima analytical ultracentrifuge and brought to 20° C. The rotor was then brought to 3,000 rpm and the samples were scanned at 280 nm to confirm proper cell loading and appropriate adjustment of the laser, via the laser delay setting. The rotor was then brought to the final run speed of 50,000 rpm. Scans were recorded every 20 seconds for 8 hours. Radial scans ranged from 5.75 to 7.25 cm.
The data were analysed using the c(s) method developed by peter Shuck at the N.I.H and implemented in his analysis program SEDFIT version 14.6e. In this approach many raw data scans directly fitted (36,000 data points for each sample in this case) to derive the distribution of sedimentation coefficients, while modelling the influence of diffusion on the data in order to enhance the resolution. The method works by assigning a diffusion coefficient to each value of sedimentation coefficient based on an assumption that all species have the same overall hydrodynamic shape (with shape defined by the frictional coefficient relative to that for a sphere, f/f0). The f/f0 values were varied to find the best overall fit of the data for each sample. A maximum entropy regularization probability of 0.95 was used and time invariant noise was removed. The analysis was performed using the standard solvent model.

B1: 4133-6294 BYbe: anti-CD45 BYbe (Fab-scFv): 4133 Fab HC-G4S linker-6294 scFv heavy chain paired with 4133 light chain (antibody)
heavy: QEQLVESGGGLVQPEGSLTLTCTASGFSFSGNYYMCWVRQAPGKGLEWIGCLYTGSSGSTYYASWAKGRFTISKTSSTTVTLQMTSLTAADTATYFCARDLGYEIDGYGGLWGQGTLVTVSSGQPKAPSVFPLAPCCGDTPSSTVTLGCLVKGYLPEPVTVTWNSGTLTNGVRTFPSVRQSSGLYSLSSVVSVTSSSQPVTCNVAHPATNTKVDKTVAPSTCSKPGGGGSGGGGSEVQLVESGAELARPGASVKMSCKASGYTFTSYTMHWVKQRPGQCLEWIGYINPSSGYTEYNQKFKDKTTLTADKSSSTAYLQLSSLTSEDSAVYYCARVGDGFYPSWLAYWGQGTLVTVSSGGGGSGGGGSGGGGSGGGGSDIQMTQSPKFLLVSAGDRVTITCKASQSVRNDVAWYQQKPGQSPKLLIFYASKRYTGVPDRFTGSGYGTDFTFTISTVQAEDLAVYFCQQDYSSPTTFGCGTKLEIK
light: AQVLTQTPSPVSAVVGGTVSISCQASQSVYNNNNLSWYQQKPGQPPKLLIYDASKLASGVPSRFKGSGSGTQFTLTISGVQCDDAATYYCLGGYYSSGWYFAFGGGTKVVVKRTPVAPTVLIFPPAADQVATGTVTIVCVANKYFPDVTVTWEVDGTTQTTGIENSKTPQNSADCTYNLSSTLTLTSTQYNSHKEYTCKVTQGTTSVVQSFNRGDC
For B1, the “almost maximal reductions in B cells” value in the assay on Human PBMC (B cells in PBMC, stated for both reagents) amounted to 87%. Besides, the “Bottom level of % subset cell reduction” value in the assay on Human PBMC (B cells) came to 18.74%; in the assay on Human PBMC (CD4+ Memory), 24%; in the assay with Human PBMC (CD4+ Naive), 18.53%; in the assay on Human PBMC (CD4+) it was 20.22%; with Human PBMC (CD8+) it was 0.543%. Moreover, the “Top level of % subset cell reduction” value was determined as 87.09% in the assay on Human PBMC (B cells); 99.76% in the assay on Human PBMC (CD4+ Memory); 99.04% in the assay with Human PBMC (CD4+ Naive); 99.2% with Human PBMC (CD4+); 98.36% in the assay on Human PBMC (CD8+). The “Experimental S value” in the assay with CD45 ECD (CD45 1:1 BYbe complex) came out at 6.9 S; with CD45 ECD (CD45 2:1 BYbe complex), 7.15 S; with CD45 ECD (CD45 2:2 BYbe complex), 8.78 S; in the assay with CD45 ECD (CD45 3:3 BYbe complex), 10.04 S; in the assay with CD45 ECD (CD45 4:3 BYbe complex), 11.12 S; in the assay with CD45 ECD (CD45 4:4 BYbe complex), 13.3 S. Also, the “Percentage of area under the curve” value with CD45 ECD (CD45 1:1 BYbe in molar 1:1 mixture) is given as 11.99%; in the assay with CD45 ECD (CD45 2:2 BYbe in molar 1:1 mixture) it was 37.7%; with CD45 ECD (CD45 3:3 BYbe in molar 1:1 mixture) it was 35.7%; in the assay with CD45 ECD (CD45 4:4 BYbe in molar 1:1 mixture), 3.46%; in the assay with CD45 ECD (CD45 (uncomplexed) in molar 1:1 mixture of CD45 ECD and BYbe) it was 9.21%.

The values are drawn from patent US20230374148A1, “BINDING MOLECULES THAT MULTIMERISE CD45” (UCB BIOPHARMA SRL, priority 2020, published 2023).
